Five sequences from the supplement of paper PMC5998384 can be followed below.

The test system of series [1] is HeLa Kyoto. Description: solubility change mitosis vs G1/S (difference of NP-40 vs SDS log2 ratios) (log2 ratio difference); higher = more soluble in mitosis.
For series [2], the system named is HeLa Kyoto. Description: melting temperature (median over replicates), in situ; higher = more thermally stable.
Series [3] has as its system HeLa Kyoto. Nature of the series: solubility in G1/S (NP-40 vs SDS abundance) (log2 ratio); higher = more soluble. Conditions: cell cycle stage: G1/S.
Series [4] deals with HeLa Kyoto. Description: thermal stability score vs G1/S (z-score of summed log2 fold changes over temperatures); higher = more thermally stable than in G1/S.
Setting [5] is: cell cycle stage: early G1 (4.5 h after nocodazole release).
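Wherever melting temperature (median over replicates), in situ is given: HeLa Kyoto cells synchronized by double thymidine or nocodazole block, proteins quantified by TMT10plex mass spectrometry, three independent biological replicates.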
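Wherever solubility change mitosis vs G1/S (difference of NP-40 vs SDS log2 ratios) is given: synchronized HeLa Kyoto cells (double thymidine block for G1/S, nocodazole release for mitosis), protein amounts in NP-40 versus SDS lysates quantified by mass spectrometry, three biological replicates.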
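Wherever solubility in G1/S (NP-40 vs SDS abundance) is given: HeLa Kyoto cells arrested at G1/S by double thymidine block, proteins quantified by TMT10plex mass spectrometry in mild NP-40 versus SDS extracts, three biological replicates.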
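Wherever thermal stability score vs G1/S (z-score of summed log2 fold changes over temperatures) is given: synchronized HeLa Kyoto cells, proteins quantified by TMT10plex mass spectrometry, three biological replicates, mitosis taken 0.5 h after nocodazole release, G1/S directly after double thymidine block.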

Regarding “MWIQVRTMDGRQTHTVDSLSRLTKVEELRRKIQELFHVEPGLQRLFYRGKQMEDGHTLFDYEVRLNDTIQLLVRQSLVLPHSTKERDSELSDTDSGCCLGQSESDKSSTHGEAAAETDSRPADEDMWDETELGLYKVNEYVDARDTNMGAWFEAQVVRVTRKAPSRDEPCSSTSRPALEEDVIYHVKYDDYPENGVVQMNSRDVRARARTIIKWQDLEVGQVVMLNYNPDNPKERGFWYDAEISRKRETRTARELYANVVLGDDSLNDCRIIFVDEVFKIERPGEGSPMVDNPMRRKSGPSCKHCKDDVNRLCRVCACHLCGGRQDPDKQLMCDECDMAFHIYCLDPPLSSVPSEDEWYCPECRNDASEVVLAGERLRESKKKAKMASATSSSQRDWGKGMACVGRTKECTIVPSNHYGPIPGIPVGTMWRFRVQVSESGVHRPHVAGIHGRSNDGAYSLVLAGGYEDDVDHGNFFTYTGSGGRDLSGNKRTAEQSCDQKLTNTNRALALNCFAPINDQEGAEAKDWRSGKPVRVVRNVKGGKNSKYAPAEGNRYDGIYKVVKYWPEKGKSGFLVWRYLLRRDDDEPGPWTKEGKDRIKKLGLTMQYPEGYLEALANREREKENSKREEEEQQEGGFASPRTGKGKWKRKSAGGGPSRAGSPRRTSKKTKVEPYSLTAQQSSLIREDKSNAKLWNEVLASLKDRPASGSPFQLFLSKVEETFQCICCQELVFRPITTVCQHNVCKDCLDRSFRAQVFSCPACRYDLGRSYAMQVNQPLQTVLNQLFPGYGNGR [UHRF1]”, in series [1], the “solubility change mitosis (log2)” value was determined as 0.3. Besides, the figures for the melting temperature in series [2] (cell cycle stage: G1/S) and in series [2] (cell cycle stage: mitosis) were 45.8 °C and 48.3 °C, respectively. Also, the “solubility in G1/S (log2)” value in series [3] is -0.563. The values for the thermal stability score in series [4] (setting [5]) and in series [4] (cell cycle stage: mitosis) were 4.54 and 8.25, respectively.
For the sequence “MWLEILLTSVLGFAIYWFISRDKEETLPLEDGWWGPGTRSAAREDDSIRPFKVETSDEEIHDLHQRIDKFRFTPPLEDSCFHYGFNSNYLKKVISYWRNEFDWKKQVEILNRYPHFKTKIEGLDIHFIHVKPPQLPAGHTPKPLLMVHGWPGSFYEFYKIIPLLTDPKNHGLSDEHVFEVICPSIPGYGFSEASSKKGFNSVATARIFYKLMLRLGFQEFYIQGGDWGSLICTNMAQLVPSHVKGLHLNMALVLSNFSTLTLLLGQRFGRFLGLTERDVELLYPVKEKVFYSLMRESGYMHIQCTKPDTVGSALNDSPVGLAAYILEKFSTWTNTEFRYLEDGGLERKFSLDDLLTNVMLYWTTGTIISSQRFYKENLGQGWMTQKHERMKVYVPTGFSAFPFELLHTPEKWVRFKYPKLISYSYMVRGGHFAAFEEPELLAQDIRKFLSVLERQ [EPHX1]”, the “solubility change mitosis (log2)” value in series [1] is -0.197. Moreover, the melting temperature came out at 57.9 °C in series [2] (cell cycle stage: G1/S) and 58.1 °C in series [2] (cell cycle stage: mitosis). In series [3], the “solubility in G1/S (log2)” value was -0.336. The thermal stability score was -3.88 in series [4] (setting [5]) and -2.14 in series [4] (cell cycle stage: mitosis).
With “MWLKVGGLLRGTGGQLGQTVGWPCGALGPGPHRWGPCGGSWAQKFYQDGPGRGLGEEDIRRAREARPRKTPRPQLSDRSRERKVPASRISRLANFGGLAVGLGLGVLAEMAKKSMPGGRLQSEGGSGLDSSPFLSEANAERIVQTLCTVRGAALKVGQMLSIQDNSFISPQLQHIFERVRQSADFMPRWQMLRVLEEELGRDWQAKVASLEEVPFAAASIGQVHQGLLRDGTEVAVKIQYPGIAQSIQSDVQNLLAVLKMSAALPAGLFAEQSLQALQQELAWECDYRREAACAQNFRQLLANDPFFRVPAVVKELCTTRVLGMELAGGVPLDQCQGLSQDLRNQICFQLLTLCLRELFEFRFMQTDPNWANFLYDASSHQVTLLDFGASREFGTEFTDHYIEVVKAAADGDRDCVLQKSRDLKFLTGFETKAFSDAHVEAVMILGEPFATQGPYDFGSGETARRIQDLIPVLLRHRLCPPPEETYALHRKLAGAFLACAHLRAHIACRDLFQDTYHRYWASRQPDAATAGSLPTKGDSWVDPS [ADCK4]”, the “solubility change mitosis (log2)” value in series [1] came out at 0.0635. Further, the melting temperature came out at 50.7 °C in series [2] (cell cycle stage: G1/S) and 49.8 °C in series [2] (cell cycle stage: mitosis). Further, the “solubility in G1/S (log2)” value in series [3] stood at 0.00454. In addition, the results for the thermal stability score in series [4] (setting [5]) and in series [4] (cell cycle stage: mitosis) were -0.115 and 0.518, respectively.
“MWRLPRALCVHAAKTSKLSGPWSRPAAFMSTLLINQPQYAWLKELGLREENEGVYNGSWGGRGEVITTYCPANNEPIARVRQASVADYEETVKKAREAWKIWADIPAPKRGEIVRQIGDALREKIQVLGSLVSLEMGKILVEGVGEVQEYVDICDYAVGLSRMIGGPILPSERSGHALIEQWNPVGLVGIITAFNFPVAVYGWNNAIAMICGNVCLWKGAPTTSLISVAVTKIIAKVLEDNKLPGAICSLTCGGADIGTAMAKDERVNLLSFTGSTQVGKQVGLMVQERFGRSLLELGGNNAIIAFEDADLSLVVPSALFAAVGTAGQRCTTARRLFIHESIHDEVVNRLKKAYAQIRVGNPWDPNVLYGPLHTKQAVSMFLGAVEEAKKEGGTVVYGGKVMDRPGNYVEPTIVTGLGHDASIAHTETFAPILYVFKFKNEEEVFAWNNEVKQGLSSSIFTKDLGRIFRWLGPKGSDCGIVNVNIPTSGAEIGGAFGGEKHTGGGRESGSDAWKQYMRRSTCTINYSKDLPLAQGIKFQ [ALDH7A1]”: the “solubility change mitosis (log2)” value in series [1] was -0.107. Further, the melting temperature was 54.3 °C in series [2] (cell cycle stage: G1/S) and 54 °C in series [2] (cell cycle stage: mitosis). In series [3], the “solubility in G1/S (log2)” value was found to be 0.167. Besides, the thermal stability score in series [4] (setting [5]) was -0.224; in series [4] (cell cycle stage: mitosis), -1.8.
As for “MWRSCLRLRDGGRRLLNRPAGGPSASMSPGPTIPSPARAYAPPTERKRFYQNVSITQGEGGFEINLDHRKLKTPQAKLFTVPSEALAIAVATEWDSQQDTIKYYTMHLTTLCNTSLDNPTQRNKDQLIRAAVKFLDTDTICYRVEEPETLVELQRNEWDPIIEWAEKRYGVEISSSTSIMGPSIPAKTREVLVSHLASYNTWALQGIEFVAAQLKSMVLTLGLIDLRLTVEQAVLLSRLEEEYQIQKWGNIEWAHDYELQELRARTAAGTLFIHLCSESTTVKHKLLKE [ATPAF2]”, in series [1], the “solubility change mitosis (log2)” value is -0.295. For the same sequence, the results for the melting temperature in series [2] (cell cycle stage: G1/S) and in series [2] (cell cycle stage: mitosis) were 56.8 °C and 56 °C, respectively. In addition, the “solubility in G1/S (log2)” value in series [3] was determined as 0.104. For the same sequence, the thermal stability score in series [4] (setting [5]) is -0.051; in series [4] (cell cycle stage: mitosis), -1.43.
